In the DeepSol protein solubility set:

Assay: soluble on expression in E. coli; label from the status in PepcDB or PDB records

Row | Sequence | soluble on expression in E. coli
1 | PFEPKIVAFVCTYCTYAGADLAGTSRLNYAPNVRIVRLPCTGRISPMFILKALQKGADSVLVSGCHPGDCHFTAGNYHARRRWTVFRALLSFTGIPEERIRFSWISAAEGAKFAELINEITDDTRKLG | not soluble
2 | MDIISLRKSPQYLEEAIAYFQRKWADENSRMVYDNCFRTCLESESPLPQWYLLINGEGEIIGCAGLATNDFNSRMDLYPWLVALFIEEQYRGHNYGNLLIKAVEEDTRRLGFGNLYLCTTHTGYYEHFNFVYIGDCYHPWGEHTR | not soluble
3 | MAGDQELELRFDVPLYTLAEASRYLVVPRATLATWADGYERRPANAPAVQGQPIITALPHPTGSHARLPFVGIAEAYVLNAFRRAGVPMQRIRPSLDWLIKNVGPHALASQDLCTDGAEVLWRFAERSGEGSPDDLVVRGLIVPRSGQYVFKEIVEHYLQQISFADDNLASMIRLPQYGDANVVLDPRRGYGQPVFDGSGVRVADVLGPLRAGATFQAVADDYGVTPDQLRDALDAIAA | soluble
4 | RQTRIMDSAQYAEFCESRQLSFSKKASKFRDWLDCSSMEIKPNVVAMEILAYLAYETVAQLVDLALLVRQDMVTKAGDPFSHAISATFIQYHNSAESTAACGVEAHSDAIQPCHIREAIRRYSHRIGPLSPFTNAYRRNGMAFLAC | soluble
5 | MRDYSELEIFEGNPLDKWNDIIFHASKKLSKKELERLLELLALLETFIEKEDLEEKFESFAKALRIDEELQQKIESRKTDIVIQSMANILSGSGSGSGSSGNPLDKWNDIIFHASKKLSKKELERLLELLALLETFIEKEDLEEKFESFAKALRIDEELQQKIESRKTDIVIQSMANILSGLEHHHHHH | soluble
6 | CPRMGHVFPLETRPYNQGSRLTAYELVYDKIPSTLITDSSIAYRIRTSPIPIKAAFVGADRIVRNGDTANKIGTLQLAVICKQFGIKFFVVAPKTTIDNVTETGDDIIVEERNPEEFKVVTGTVINPENGSLILNESGEPITGKVGIAPLEINVWNPAFDITPHELIDGIITEEGVFTKNSSGEFQLESLF | soluble
7 | MEIVYKPLDIRNEEQFASIKKLIDADLSEPYSIYVYRYFLNQWPELTYIAVDNKSGTPNIPIGCIVCKMDPHRNVRLRGYIGMLAVESTYRGHGIAKKLVEIAIDKMQREHCDEIMLETEVENSAALNLYEGMGFIRMKRMFRYYLNEGDAFKLILPLTEKSCTRSTFLMHGRLAT | not soluble
8 | MESTVTTQEEKLAYQQSVEMASNYANQFDADMKANLAIARTISTTMESYETADRDEALLILENLLRDNPHLLGTYVAFEPDAFDGKDAEYTNSPAHDGTGRFVPYWNKMNGTASVAPLLHYDSSDYYQLPKATEKDVLTEPYFYEGVFMVSYVSPIMKEGEFAGIGGVDVSLEYVDEVVSKVRTFDTGYAFMVSNSGVILSHPTHKDWIGKKDLYDFGGEELEKASRDIKNGIGGHLETADPTTGKTVILFYEPVETGDFAFVLVVPKEEMLAGVADLRERLLEHHHHHH | soluble
9 | MMPGYQSADEFADKEKGWTGVHQWEKEMAKADEKYGPIFAKFAAMPIEEVAKDPQAVKMGGRLFASNCSICHGSDAKGAYGFPNLTDADWRWGGEPETIKTTIMAGRHAAMPAWGEVIGEEGVKNVAAFVLTQMDGRKLPEGAKADIEAGKQVFATTCVACHGPEGKGTPAMGAPDLTHPGAFIYGSSFAQLQQTIRYGRQGVMPAQQEHLGNDKVHLLAAYVYSLSHGE | not soluble
10 | MSSSQELRSNFYREKNLMETVFDALKAMGKATSIELAARLDISREEVLNELWELKKAGFVDKSAYTWRVADNNVQQEQPAQAELPEEITTATVAKISECDLTATIEQRGPQTADELATLFGTTSRKVASTLAMAISKGRLIRVNQGGKFRYCIPGDNLPAEPKAASVSPLWLSASSSACHGVLIITVITPSPTKNSATKMPENLEHHHHHH | not soluble
11 | CSPVRERRLEHQLEPGDTLAGLALKYGVTMEQIKRANRLYTNDSIFLKKTLYIPILTEPRDLFN | soluble
12 | MGSDKIHHHHHHMSTPIPSLADAPPVLCVHGIGKTYAEPVLADVSLELRAGEVLALTGENGAGKSTLSKIVGGLVTPTTGSMTLGGAAYAPASRKDAEALGVRMVMQELNLLPTLSVAENLFLNRLPRNLVGWIDRARLRENARHAMAQVGLDAIDPDTLVGTLGIGHQQMVEIARNLIGDCRVLILDEPTAMLTAREVDLLFEQVERLKAHGVALVYISHRLEELKRIARRAAVLRDGRLVHVDEMANLSTDRLVTLMVGRDIGDRIDLGERRIGEVAFKVSGMTREPVVRDVSFEVRAGEIFGISGLIGAGRTELMRLIYGADHADAGSVSLGRGGAAPEPVTIASPSDAVQHGIALITEDRKGEGLLLTQPIAANISLGHLRAVSNKGVVDGRREAALARRQIDAMRIRSAGPSQPVSELSGGNQQKVVIGRWLARDCTVLLFDEPTRGIDVGAKFDIYALMGALAREGRALVVVSSDLRELMAICDRIGVMSAGRMTGLFERGNWTQDALLAAAFAGYAKRDDLLHEPIEPDAKAPDESKLVEY | not soluble
13 | AIALVEDSGHHLPESADIENALDLLLKAQLERAFGPELAEHFWAARQPRTLDERLAFIRKCWIGVFKDSPLSTFGLERLEQLERLCRSKRRGRELSAAEHHQFAEELARLWEQVQRLLPRAAPETSYASSASAGGVHSGDAHTPATLSDAESAHAAPEAMRIEAPATSARSASGCMARVSSDVAAAATNVSLVVLDGENIAWAHGQNAVFSPKGIAIAVDFFRKRGYRCVVFLPDYRRKRADLPTVSASDALVFVPAGEYDDTFALGYAVGHDAILVTNDLLQDHLDQFYPDEGEAREALRKWLGSHRCSFTFVGDEFLPNPHFFLP | soluble
14 | MHHHHHHMKRKSIFKDKVFLFLNAKQYKKLSPAVLFGGGKTDLLMGELKDASVLDNPATCVIDVAMTESQLSESQSTQPWITSTLDLLQSKGLRTIPEAEIGLAVINVSTEIYCNPRR | soluble
15 | MGHHHHHHSHMGHLDKEGLCTQGSSFSWLLRVLNDGISLGLTPCLWDMYLLEGEQMLMLITSIAFKVQRSLYEETNKETWGPATPRALKGTGRARPICESLHSSLQALTASESSRGPSLLQTPPRVPGQQALSRGDKGISVSLSLPSLPSRRGRCGRIIG | not soluble
16 | MSTRLCEPSLRDDGAQRGTPASHGKWCDTGAFKLDETPSPVVANVSSTSDASFQFNRTPSPGKHQNHAADRSMWSLDDFVIIRKLDEGRFGKVYLAREKQSKCAVVLKCISKDMIRFHSLAHQLQREVELQEYAGRYHKNVLRLFAYFWDDVRIVLVLEYADSGTLQDLLDCYREKEQRSSLPDDKVRTILLQLLSALAFLHERDIIHRDVKPDNILFHGEKLLLADFSWAVRVNNSDPRYCRRHTVCGTLDYLAPEQVLKRGCTTKADLWAVGVVAYRMLCGFLPFEMLDARDVCSCIASGAIRYPSQLSPTARHFLQGLLRVDEALRFSCQEALNHPFMRGDCNCRISNRYIESKHRARAEEPVLQHQGSFDTTKNGTRWIQQKKESWCCSRAPTLNVPEPVHHTGTNCVANHSHNHKDMDKSTTLSCPSASDIVRVRATTERVRCPVDDYSGTSASLITISPLRSTECMQSLSNVSTPSIVSQTHSEWLHSASPISHTPVVAAAATSKCSRDDVGTSSYGVSYSGIRLHNSASDGSGTTTGQHHAQLGTSTHSSFAFAPPTSARYRRDISGYHRINGRGSSPSDHEEYEVASCALRLCFDDEDDADNNCSGALHAAASNRPKTLKSGVMMNGTAPPSHHKGSSYDVR | not soluble
17 | MGSDKIHHHHHHMGRTLGVGTVTPNLIGAHRDLIQRYGGHYPVISAHIWFDGTGLDPRYQYVTVLRDPVDRFISWLYFIDKDVELTEDTRELKVGAQLFLRSEGEETNQTFMRSASNPYVNNFSSVVMRCNASWQQKMVAALSVLTDYDLVGFQADLPQFIEQLAKLLHVINYVSLRPVNVTSSRPQRDGISEKMLHAIRKLTEWDLELYSEIQRMANRQAPTIGVSCNIQPFNREFGDWGFKARKSSNVYWLGSYLTHYLAKDLSTRNGSVAGRALVSNGAKGYLCHGPYLDLDPGHYCAVANGVWITRGVTCNADVCSGKGAVLHAEETLVDLGAKGTEWSLPVDFALDEETTSVEFRLMVPDEHQVQLNTVTIVNEKMVMTILGLEPDSHAANRGVEKQNSGSTLIFPVQMSSKIGLRVGTTLQTTGQEGFLCYGPYMTLSRGIYRVNLMGSIGPQGLAGAYADIVCDAGKKGIHNEPLAITPFNEYVDSTVGKPWMFFLEQDVSDLEIRLWVSNQTEINLCGIVLQQIEET | not soluble
18 | MGSDKIHHHHHHMKFLDVNQHLSELDEHIKVLKSYGDVFEAVEARITRVINMDGAFKGEGAKGVIYNHTHMQLPTIRSIRAFLISFSDTLEKMKANITEYEPASNGSVSENFWKNQLPKAYDRYEETLEEREATINQATAQVSHILHLGKLQTGDLYNSVDSARKHADTVLEGLYDLDQAGVELMAQVRTKMEELKATIRQVLDWNMTGGVTMKGVSIMEIGGYFANNATLHEKAPEVKVELLDLNPLVQYANDFPLRFKYDTMHSINESI | not soluble
19 | MSLVKIKIFVNELLTDVEENTTAYKVRDSYNNKCDVLVLNGYPIKTDMTLCENDKLTLIQKGVKPSLDELESLLIARHTPNIHNKLKKGKVAILGLGGLGSNIAISLARIGVGELLLIDYDVVEPSNLNRQQYFIDDIGKLKTDAMIENIKKINPFIKLNKRDIFLNKNNMDTIKDSDLIIEAFDDASCKAQVCNYVLINLKDKYLIASSGMAGYYDSNIITTKKIKDRFYICGDFVNEAKFGEGLMAPRVAICANHMANLATQILIDMEGHHHHHH | soluble
20 | MELSLSRVHFPVTTLGPGRRLGIWFQGCSIRCPGCISADTWGPGRRRIALARLLADIQPWLEQAEGITVSGGEPFEQFAALLALLGELRRRSRADILVYSGYPLEHLHAQLEQAAGLIDALISDPYQQHAEQSLALRGSDNQRLSLLTELGRARLGGYQRPLREDDKALDLMFDHDGSVWMAGIPRRDDLLRLQDLLREQGHQLSVSAHRPR | not soluble
21 | MSLSKKTQINLKIERAKEEDLPKLVDLYLRAYKGLEEYAYTHPKDVKSYLKWLWNRDKEGIFLAKVDGKIVGFGAGDANWFSRREGKRVGAIHEIVVDPEYQGHGVGTALMNTILEYFKKKGLDTAELWVGDENYKAINFYKKFGFQESGRYNYWIRMIKGIITITTDPNSSSVDKLAAALEHHHHHH | soluble
22 | MLKKIREEFGCIFARDPAAQSFFEILTVYPGVHAVLIHRFSHWLWNHGLHWPARVLSYLARWATGIEIHPGATLGRRLFIDHGMGVVIGETAVIGDDCTLYHGVTLGGTSWQKGKRHPTLGNGVVVGAGAKVLGPITVGDGARIGSNSVVLRTVPAGATVVGIPGHIINPDRRAQEAQRLAIASRLGFDAYGMTPDMPDPVAHAINHMLDHIQALDQQVAKLKEVLRERGIDLEEAPLPDLDDCQLDPGEPQVTVNSSRTGLEHHHHHH | soluble
23 | MNGWNFQELKETPSQTGGPYVHIGLLPKQANIEVFEHNLDNNLVQDNTQGQRIRLEGQVFDGLSLPLRDVLIEIWQADTNGVYPSQADTQGKQVDPNFLGWGRTGADFGTGFWSFNTIKPGAVPGRKGSTQAPHISLIIFARGINIGLHTRVYFDDEAEANAKDPVLNSIEWATRRQTLVAKREERDGEVVYRFDIRIQGENETVFFDI | soluble
24 | GMSTDTCIKRPTRSELVDRFQKKIRAGEPIIGGGAGTGLSAKSEEAGDIDLIVIYNSGRYRMAGRGSLAGLLAYGNANQIVVDMAREVLPVVRHTPVLAGVNGTDPFMVMSTFLRELKEIGFAGVQNFPTVGLIDGLFRQNLEETGMSYAQEVEMIAEAHKLDLLTTPYVFSPEDAVAMAKAGADILVCHMGLTTGGAIGARSGKSMDDCVSLINECIEAARTIRDDIIILSHGGPIANPEDARFILDSCQGCHGFYGASSMERLPAEEAIRSQTLAFKAIRRQPA | soluble
